Reference: US20260258115A1 (MAPP BIOPHARMACEUTICAL, published 2026)
Positions count from the first letter of the chain named.

B1: ADI-14341 (antibody, V domains shown)
VH: QVQLVQSGGGLVQPGGSLRLSCAGSGFTFSDYEMNWVRQAPGKGLEWLSYISSSGSIIYYADSVKGRFTISRDNAKNSLYLQMNSLRAEDTGLYYCARANHRHYYGMDVWGQGTTVTVSS
VL: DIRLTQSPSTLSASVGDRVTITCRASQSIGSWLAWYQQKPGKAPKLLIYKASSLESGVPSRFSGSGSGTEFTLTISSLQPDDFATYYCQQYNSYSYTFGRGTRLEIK
notes: full-length IgG; also called Ab 9
B2: ADI-14371 (antibody, V domains shown)
VH: EVQLVESGGGLVQPGGSLRLSCAASGFTFSNYAMTWVRQAPGKGLEWLSSISGSGGSTYYADSVKGRFTISRDNSRNTLYVQMNSLRVEDTAFYYCAKAFYEYGAGSPGDYWGQGTLVTVSS
VL: DIQLTQSPSSLSASVGDRVTITCRASQSIGTNLNWYQQKPGKAPKFLIYAASSLQRGVPSRFSGSGSGSEFTLTISSLQPEDFATYYCQQSYSTLPITFGQGTKLEIK
notes: full-length IgG; also called Ab 39
B3: ADI-19482 (antibody, V domains shown)
VH: QVQLQQWGAGLLKPSETLSLTCGAFHGSFSGYYWSWIRQPPGKGLEWIGEVTHSRSTNYNPSLKSRITISVDTSRNQFSLKLNSVTAADTAVYYCARGSGEWYFDIWGRGTLVTVSS
VL: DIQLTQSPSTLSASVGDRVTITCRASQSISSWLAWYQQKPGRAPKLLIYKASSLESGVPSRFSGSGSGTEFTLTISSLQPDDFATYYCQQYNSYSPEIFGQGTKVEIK
notes: full-length IgG
B4: ADI-14368 (antibody, V domains shown)
VH: EVQLVESGGGLVKPGGSLRLSCAASGFTFINAWMSWVRQAPGKGLEWVGRIKSKADGGTTDDAAPVKGRFTISRDDSKNTLYLQMNSLKIEDTAVYYCATDVLPLYNWNLGWNFDLWGRGTLVTVSS
VL: SYVLTQPPSVSVAPGKTARITCGGNNIADKSVHWYQQKPGQAPVLVMYYDTDRPSGIPERFSGFNSGNTATLTISRVEAGDEADYYCQVWDSSSDHVVFGGGTKVTVL
notes: full-length IgG; also called Ab 36
B5: ADI-14365 (antibody, V domains shown)
VH: QVQLVQSGAEVKKPGASVKVSCKVSGYTLTKLSMHWVRQAPGKGLEWMGFFDPEDGDTLYAQKFQGRVTMTEDTSSDTPYMELRSLRSEDTAVYYCASPAAAGQFDYWGQGTLVTVSS
VL: DIVMTQSPSSLSASVGDRVTITCRASQFISSYLHWYQQKTGKAPKLLIYAASSLQSGVPSRFSGSGSGTDFTLTISSLQPEDFATYYCQQSYNTPRTFGQGTKLEIK
notes: full-length IgG; also called Ab 33
B6: ADI-19480 (antibody, V domains shown)
VH: EVQLVESGGGLVKPGGSLRLSCAASGFTFSAYSMNWVRQAPGKGLEWVSSISSTTNYISYADSVKGRFTISRDNAKNSLYLQMNSLRAEDTAVYYCARDPKYYGLGTYYKDDYWGQGTLVTVSS
VL: NFMLTQPHSVSESPGKTVTISCTRSGGSIASNYVQWYQQRPGSSPTTVIYEDNQRPSGVPDRFSGSIDSSFNSASLTVSGLKTEDEADYYCQSFDNNNRWVFGGGTKLTVL
notes: full-length IgG
B7: ADI-14350 (antibody, V domains shown)
VH: EVQLVESGPGLVKPSETLSLTCTVSGDSVSNNNYYWNWIRQSPGKGLEWIGYIYYSGSTDYNPSLKSRVTISVDTSKNQFSLNLRSVTAADTAIYFCASAPWGMFTILGVVP
VL: QSVLTQPPSVSGAPGQRVTISCTGSSSNIGAGYDVHWYQQLPGTAPKLLIYGSSNRPSGVPDRFSGSRSGTSASLAITGLQAEDEADYYCQSYDGSLGVYVFATGTKVTVL
notes: full-length IgG; also called Ab 18
B8: ADI-22759 (antibody, V domains shown)
VH: EVQLLESGGGLVKPGGSLRLSCAASGFSFSSYTMNWVRQAPGKGLEWVSSITGGSSYIDYAGSLKGRFTISRDNAKNSLYLQMNSLRVEDTAVYYCARDFPNIAVGGKTLDYWGQGTLVTVSS
VL: QPVLTQPPSVSGAPGQRVTISCTGSSSNIGAGYDVHWFQQLPGTAPKLLIYVNNNRPSGVPDRFSGSKSGTSASLAITGLQAEDEADYYCQSYDRLSAVVFGGGTKVTVL
notes: full-length IgG
B9: ADI-14355 (antibody, V domains shown)
VH: EVQLVESGPTLVKPTQTLTLTCTFSGFSLSTSGVGVGWIRQPPGKALEWLAVIYWDDDKTYSPSLKSRLTITKDTSKNQVVLTMTNMNPVDTATYYCARCPAPVYSYGVDVWGQGTTVTVSS
VL: QSALTQPASVSGSPGQSITISCTATSSDFGGYDYVSWYQQHPGEAPKLMISDVTNRPSGVSNRFSGSKSGNTASLTISGLQAEDEADYYCSSYTSYTTPYVFGTGTKLTVL
notes: full-length IgG; also called Ab 23
B10: ADI-14375 (antibody, V domains shown)
VH: EVQLVESGGGLVQPGGSLRLSCAVSGFTFSNYAVSWVRQAPGKGLEWVSGISGSGGTTYYVDSVKGRFTVSRDNSKNTLFLQLNSLKAEDTAVYYCAKDWGYSGGRPYFDYWGQGTLVTVSS
VL: QSVLTQPPSVSGAPGQRVTISCTASSSNIGPIYDVHWYQQLPGTGPKLLIYGNNNRPSGVPDRFSGSKSGTSASLAITGLQAEDEADYYCQSYDTSLSVVFGGGTKLTVL
notes: full-length IgG; also called Ab 43
B11: ADI-25547 (antibody, V domains shown)
VH: EVQLLESGGGLIQPGGSLRLSCAASGFTVSSNYMSWVRQAPGKGLEWVSVIYSGGSTYYADSVKGRFTISRDNSKNTLYLQMNSLRAEDTAVYYCARGGIADAFDIWGQGTMVTVSS
VL: ETTLTQSPSSVSASVGDRVTITCRASQGISSWLAWYQQKPGKAPKLLIYAASSLQSGVPSRFSGSGSGTDFTLTISSLQPEDFATYYCQQANSFPRTFGQGTKLEIK
notes: full-length IgG
B12: ADI-25497 (antibody, V domains shown)
VH: EVQLLESGGGLVQPGGSLRLSCAASGFTFSSYWMSWVRQAPGKGLEWVANIKQDGSEKYYVDSVKGRFTISRDNAKNSLYLQMNSLRAEDTAVYYCARDGLLQYDFWSGYYDYWGQGTLVTVSS
VL: EIVLTQSPSSLSASVGDRVTITCRASQGISSWLAWYQQKPEKAPKSLIYAASSLQSGVPSRFSGSGSGTDFTLTISSLQPEDFATYYCQQYNSYPFTFGPGTKVDIK
notes: full-length IgG
B13: ADI-14383 (antibody, V domains shown)
VH: QITLKESGPTLVKPTQTLTLTCTFSGFSLSTSGVGVGWIRQPPGKALEWLALIYWDEDKRYSPSLKTRLTITKDTSRNQVKLTMTNMDPVDTATYYCAHQYYDILTGYPSPGAFDIWGQGTTVTVSS
VL: QPVLTQPASVSGSPGQSITISCTGTSSDVVSYNLVSWFQQHPGKAPKLMIYEVTRRPSGVSNRFSGSKSGNTASLTISGLQAEDEADYYCCAYTGTPVVFGGGTKLTVL
notes: full-length IgG; also called Ab 51
B14: ADI-14338 (antibody, V domains shown)
VH: EVQLVESGGGVVQPGRPLRLSCAASGFTFSTYDLYWVRQAPGKGLDWVAIISPDGNKKYYADSVKGRFTISRDNSKNTLFLHMNSLRAEDTAVYYCARDYGNYFGSGSYYRYFDLWGRGTLVTVSS
VL: DIQLTQSPSSLSASVGDRVTITCRASQSISSHLNWYQQKPGKAPKLLIYASSSLQSGVPSRFSGSGSGTDFTLTISGLQPEDFATYYCQQSYSTPFTFGPGTKVEIK
notes: full-length IgG; also called Ab 6
B15: ADI-41360 (antibody, V domains shown)
VH: EVQLVESGGGLVQPGGSLRLSCAASGLTFSRYSMNWVRQAPGKGLEWVSYISSTGRRIQYADSVKGRFTISRDDGKNSLYLQMNSLRAEDTAVYYCARDPLNYHDNTAYWSYWGQGTLVTVSS
VL: B6 VL with G26S, S44A, F71S, V78I, F94Y, N96S, N97S, R99P, W100L
notes: IgG1; also called Ab 657
B16: ADI-41355 (antibody, V domains shown)
VH: EVQLVESGGGLVKPGGSLRLSCTASGFTFSDYYMNWIRQAPGKGLEWVSYISGDGNTIYYTDSVKGRFTISRDNAKNSLFLQMNSLRGEDSAVYYCAGPVRGYTYGIFDYWGQGALVTVSS
VL: YYVLTQPPSVSVAPGQAARITCGGNNIGSRSVNWYQQKPGQAPVVVIYGDSVRPSGIPERFSGSNSGNTATLTFSRVEAGDEADYYCQVWETNSDHPVVFGGGTKVTVL
notes: IgG1
B17: ADI-41354 (antibody, V domains shown)
VH: EVQLLESGGGLVQPGGSLRLSCAASGFTFSSYAMSWVRQAPGKGLEWVSGISGSGGTTYYADSVKGRFTISRDNSKNTLYLQMNSLRAEDTAVYYCAKDSPVNINCGGDCDVAYWGQGTLVTVSS
VL: EIVMTQSPSSLSASVGDTVTITCQASQDISYSLNWYQQKPGKAPNLLIFDASHLQTGVPSRFSGGGDGKHFSFTISSLQPEDVATYYCQQYDSLMYTFGQGTKVEIK
notes: IgG1; also called Ab 651
B18: ADI-41365 (antibody, V domains shown)
VH: EVQLVESGGGLVKPGGSLRLSCATSGFTFSDYYMTWIRQAPGKGLEWVSYISSSGGYTNYADSVRGRFTISRDNAKRSLYLQMNSLRAEDTAVYYCARVEFSSGDVPSLFDSWGQGTLVTVSS
VL: QSVLTQPPSVSGAPGQRVTISCTGSSSNLGAGYHVHWYQQFPGTAPKPLIYGNTNRPSGVPDRFSGSKSGTSASLAITGVQAEDEADYYCQSYDYSLSGWVFGGGTKLTVL
notes: IgG1

What follows are binders tested against T1, RSV postfusion F (postF), subtype A (respiratory syncytial virus subtype A, UniProt P03420 26-513) (assay: BLI, IgG).
T1 construct: also called Postfusion subtype A; F deltaFP

Row | Binder | Kd [nM]
1 | B1 | 0.713
2 | B2 | 1.23
3 | B3 | 1.71
4 | B4 | 24.5
5 | B5 | 10.3
6 | B6 | 0.129
7 | B7 | 0.264
8 | B8 | 25.3
9 | B9 | 0.48
10 | B10 | 0.477
11 | B11 | 21.5
12 | B12 | 18.4
13 | B13 | 0.434
14 | B14 | 5.98

The binders below were run against T2, RSV prefusion F (preF), subtype B (respiratory syncytial virus subtype B) (assay: BLI, IgG).
T2 construct: also called Prefusion subtype B

Row | Binder | Kd [nM]
15 | B2 | 8.43
16 | B3 | 1.89
17 | B4 | 1.21
18 | B5 | 0.962
19 | B6 | 0.383
20 | B7 | 0.574
21 | B8 | 0.353
22 | B9 | 1.25
23 | B10 | 3.21
24 | B11 | 20.3
25 | B12 | 14.1
26 | B13 | 1.75
27 | B14 | 7.04

The binders below were run against T3, RSV postfusion F (postF), subtype B (respiratory syncytial virus subtype B) (assay: BLI, IgG).
T3 construct: also called Postfusion subtype B

Row | Binder | Kd [nM]
28 | B1 | 0.612
29 | B2 | 1.07
30 | B3 | 0.555
31 | B4 | 17.7
32 | B5 | 22.3
33 | B6 | 0.119
34 | B7 | 0.148
35 | B8 | 10.1
36 | B9 | 0.37
37 | B10 | 3.31
38 | B11 | 23.1
39 | B12 | 14.8
40 | B13 | 0.251
41 | B14 | 3.14

The binders below were run against RSV F on RSV subtype A virus (mKate-RSV A2) (respiratory syncytial virus A2, UniProt P03420 26-574) (assay: cell-based or functional assay).

Row | Binder | Neut IC50 subtype A [µg/mL]
42 | B3 | 1.49
43 | B5 | 0.8
44 | B8 | 0.08

The binders below were run against RSV F on RSV subtype B virus (mKate-RSV B 18537) (respiratory syncytial virus B 18537, UniProt P13843 26-574) (assay: cell-based or functional assay).

Row | Binder | Neut IC50 subtype B [µg/mL]
45 | B1 | 17.5
46 | B3 | 2.24
47 | B4 | 1.1
48 | B5 | 0.49
49 | B6 | 6.25
50 | B7 | 4.82
51 | B8 | 0.2
52 | B9 | 4.72
53 | B14 | 10.2

What follows are binders tested against RSV fusion glycoprotein (RSV F) on RSV-A2 virus (respiratory syncytial virus, UniProt P03420 26-574) (assay: cell-based or functional assay).

Row | Binder | Neutralization IC50 (RSV subtype A) [µg/mL]
54 | B15 | > 25
55 | B16 | > 25
56 | B17 | > 25
57 | B18 | > 25

Each binder was assayed against RSV prefusion F (preF), DS-Cav1 (respiratory syncytial virus, UniProt P03420 26-513) (assay: BLI, IgG on sensor, 100 nM antigen).

Row | Binder | Kd [nM]
58 | B15 | 2.46
59 | B16 | 3.84
60 | B17 | 0.771
61 | B18 | 2.87

The binders below were run against RSV postfusion F (postF), F deltaFP (respiratory syncytial virus, UniProt P03420 26-513) (assay: BLI, IgG on sensor, 100 nM antigen).

Row | Binder | Kd [nM]
62 | B15 | 0.358
63 | B16 | 1.18
64 | B17 | 0.429
65 | B18 | 2.22
